Source: patent US10005846B2, “Anti-transglutaminase 2 antibodies” (MEDICAL RESEARCH COUNCIL TECHNOLOGY, priority 2012, dated 2018)

Legend:
[1] = molecular target: T1, HepG2 cell lysate proteins (Homo sapiens, UniProt P21980); experiment: Western blot of HepG2 lysate immunoprobed with AB1; assay type: binding; settings: 25 μg of lysate
T1 construct: endogenous in cells; host or cells: HepG2
T1 sequence (P21980 1-687): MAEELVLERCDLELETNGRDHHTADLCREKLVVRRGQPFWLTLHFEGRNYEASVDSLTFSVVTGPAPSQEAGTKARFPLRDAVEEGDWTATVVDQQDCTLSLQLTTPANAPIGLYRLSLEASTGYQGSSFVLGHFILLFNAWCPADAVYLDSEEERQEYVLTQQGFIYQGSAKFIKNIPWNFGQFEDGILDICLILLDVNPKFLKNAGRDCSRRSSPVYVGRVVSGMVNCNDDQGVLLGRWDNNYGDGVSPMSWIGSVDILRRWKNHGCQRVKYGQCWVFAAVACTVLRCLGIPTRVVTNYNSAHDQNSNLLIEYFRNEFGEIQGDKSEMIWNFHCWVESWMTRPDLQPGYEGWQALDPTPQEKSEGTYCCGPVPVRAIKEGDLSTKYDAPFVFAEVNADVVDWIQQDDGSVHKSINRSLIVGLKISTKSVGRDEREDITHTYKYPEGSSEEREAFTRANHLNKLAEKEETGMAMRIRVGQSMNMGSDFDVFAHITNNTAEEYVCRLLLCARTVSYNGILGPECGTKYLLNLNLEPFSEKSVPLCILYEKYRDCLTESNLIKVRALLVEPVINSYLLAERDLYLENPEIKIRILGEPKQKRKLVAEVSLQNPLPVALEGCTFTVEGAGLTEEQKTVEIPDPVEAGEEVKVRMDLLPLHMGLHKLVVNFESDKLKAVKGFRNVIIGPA
Procedure: B: HepG2 cells were exposed to increasing glucose concentrations for 96 hours to up regulate TG2 expression. Cells were harvested, lysed and 25 ug of lysate fractionated by SDS-PAGE, western blotted and then immunoprobed with a 1 ng/ml solution of AB1 IgG using a chemiluminesant end point.
Confirmation of TG2 core protein synthesis as well as TG2 and TG2 core reactivity levels following immunisation were all measured by western blotting. Recombinant proteins (10 to 80 ng) were loaded on a 10% (w/v) polyacrylamide denaturing or non-denaturing gel as required and transferred onto PVDF membranes (Transblot SD, Biorad, UK) for one hour at 100 V. Membranes were blocked overnight at 4° C. with 3% (w/v) BSA in TBS/0.1% (v/v) Tween 20. The membranes were then washed and probed with monoclonal mouse anti-transglutaminase antibodies in TBS/Tween containing 1% BSA. For proof of recombinant TG2 core protein and as a positive control for antibody screening the commercial antibody Cub7402 (neomarkers) was used at a 1:1000 dilution. Binding of primary antibody was detected with the anti-mouse gamma-chain-HRP linked secondary antibody (Sigma, Poole, UK). Bands were visualised using ECL chemiluminescent detection system (Amersham, UK).

[2] = molecular target: T2, TG2 activity in HepG2 cell homogenate (Homo sapiens, UniProt P21980); experiment: 3H putrescine incorporation TG activity assay in HepG2 cell homogenate; assay type: biochemical
T2 construct: endogenous in cells; host or cells: HepG2
T2 sequence (P21980 1-687): T1 sequence (P21980 1-687)
Procedure: A: Hep2G cells were lysed and 45 ug of protein mixed with 750 ng of IgG from AB1, DH2, DD9, BB7, DC1 and EH6 for 20 minutes. This was subsequently assayed using the ^3H Putrescine incorporation TG activity assay with sampling over 1 hour. The rate of reaction was calculated and expressed as a percentage of the same lysate incubated with a random antibody (MAB002). Data represents the mean percentage inhibition ±SEM from 2 separate experiments done in duplicate. *p<0.05
HepG2 cells were kindly supplied by Richard Ross (University of Sheffield). Cells were routinely grown at 37° C. in a 95% humidified atmosphere of 5% CO2 in DMEM/4.5 g per liter glucose supplemented with 10% foetal calf serum (FCS), 100 IU penicillin and 100 μg/ml streptomycin, 2 mM I-glutamine (all GIBCO). Two million cells were seeded on a 10 cm dishes and grown for 48 hours. Cells were lysed in 250 μl of STE buffer (0.32M sucrose, 5 mM Tris, 1 mM EDTA containing protease inhibitors Phenylmethylsulphonyl fluoride (1 mM), benzamidine (5 mM), and leupeptin (10 μg/ml) and sonicated on ice to produce a cell lysate usable in TG2 activity assay.
The same protocol was used to assess TG inhibition in cell lysates by replacing the 25 μl of recombinant protein with 25 μl of cell lysate.

[3] = molecular target: T3, extracellular TG2 in human HK-2 cells (Homo sapiens, UniProt P21980); experiment: Extracellular TG activity in HK-2 cells, biotin cadaverine incorporation into fibronectin (Example 1); assay type: cell-based
T3 construct: endogenous in cells; host or cells: HK-2 (kidney proximal tubular epithelium)
T3 sequence (P21980 1-687): T1 sequence (P21980 1-687)
Procedure: HK2 cells were plated onto fibronectin and incubated for 2 hours in the presence of 0.1M biotin cadaverine with either 4 ng/μl of human anti-TG2 antibody (AB1) (part A), 4 ng/μl of human anti-TG2 antibody (DC1) (part B) or 400 μM of the site-specific pan TG inhibitor 1,3-Dimethyl-2-[(2-oxo-propyl)thio]imidazolium chloride. […] Changes in optical density were measured at 450 nm in a 96 well plate reader. Data represents mean OD at 450 nm corrected to 1 mg of cell protein. n=6 wells per experimental group.
Extracellular TG activity was measured by modified cell ELISA. HK-2 epithelial cells were harvested using 0.1M EDTA or 0.25% trypsin/EDTA and plated at a density of 8×10^4 cells/well in serum free medium onto a 96 well plate that had been coated overnight with 100 μl/well of fibronectin (5 μg/ml in 50 mM Tris-HCl pH 7.4) (Sigma, Poole UK). Cells were allowed to attach for 2.5 h at 37° C. in the presence of the 0.1 mM biotin cadaverine [N-(5 amino pentyl biotinamide) trifluoroacetic acid] (Molecular Probes, Eugene Oreg., USA). Plates were washed twice with 3 mM EDTA/PBS and cells removed with 0.1% (w/v) deoxycholate in 5 mM EDTA/PBS. The supernatant was collected and used for protein determination. […] The reaction was stopped with 50 μl 2.5 M H2SO4 and the absorbance read at 450 nm.

human TG2 = molecular target: T4, human TG2 (Homo sapiens, UniProt P21980); experiment: 3H-putrescine incorporation TG activity assay with recombinant human TG2; assay type: biochemical
T4 sequence (P21980 1-687): T1 sequence (P21980 1-687)
Procedure: To determine an IC50 value for each antibody against human, rat and mouse the ^3H Putrescine assay was used. 100 ng of human TG2 or 25 ng of mouse and rat TG2 was used to generate a reaction where approximately 3000 cpm of Putrescine were incorporated per hour in 10 ul of the reaction mixture. Serial dilutions of each antibody were then applied starting from adding 500 ng (5 ug/ml final concentration) to the reaction mixture and incubated with the TG2 for 20 minutes prior to activating the reaction. IC50 values were calculated by determining the concentration at which the enzymatic rate of reaction was reduced by 50% using an appropriate curve fit in graphpad prism. Values are expressed as the amount of IgG in […] in the reaction that would inhibit 1 ng of TG2.
TG activity is measured by the Ca^2+ dependent incorporation of ^3H-putrescine into N′,N′-dimethylcasein. Recombinant human TG2 (100 ng) was pre-incubated for twenty minutes at room temperature with the test sample (conditioned medium or purified IgG) before starting the reaction. Twenty-five μl of reaction mix (5 μl of 25 mM CaCl2, 5 μl of 40 mM dithiothreitol, 5 μl ^3H-putrescine mix, and 10 μl 25 mg/ml of N,N′ dimethylcasein (replace 25 mM CaCl2 with 100 mM EDTA for a non-enzymatic control) was added to start the reaction and the samples incubated at 37° C. for up to 1 hour. Aliquots of 10 μl were spotted onto a strip of 3 MM Whatman filter paper and plunged immediately into ice-cold 10% trichloroacetic acid (TCA) in order to precipitate the cross-linked proteins typically at time 0, 10, 30 and 60 minutes into the reaction. After three extensive washes in ice-cold 5% TCA followed by 3 rinses with ice-cold 95% ethanol, the air dried filter was counted in 2 ml of scintillation fluid (Ultima Gold Packard, Perkin Elmer). The rate of reaction was calculated. 1 TG unit is equivalent to the incorporation of 1 nmol of putrescine per hour at 37° C.

B1: AB1: murine monoclonal anti-TG2 IgG, Group 1 (epitope amino acids 304 to 326); VH and VK in FIGS. 7 and 18 (antibody, V domains shown)
VH: EVQLVESGGGLVKPGGSLKLSCAASGFTLSSSAMSWVRQTPDRRLEWVATISVGGGKTYYPDSVKGRFTISRDNAKNTLYLQMNSLRSEDTAMYYCAKLISLYWGQGTTLTVSS
VL: DIKMTQSPSSMYASLGERVTITCKASQDINSYLTWFQQKPGKSPKTLIYRTNRLFDGVPSRFSGSGSGQDFFLTISSLEYEDMGIYYCLQYDDFPYTFGGGTKLEIK
Q: Which “off target association in HepG2 lysate” value [1] does the source give for B1 here?
A: no off target association

Q: What about the “inhibition of TG2 in human Hep2G cells (in words)” value [2] of the same molecule?
A: able to inhibit TG2 successfully

Q: And the “inhibition of TG2 activity in HepG2 homogenate” value ([2]; 0.5 μg of antibody, 45 ug lysate protein)?
A: 70%

Q: And the “inhibition of extracellular TG activity” value ([3]; 4 ng/ul in the culture media)?
A: 60%

Q: And the “inhibition of extracellular TG2 in human HK-2 cells (in words)” value ([3]; applied to the culture media)?
A: able to inhibit TG2 successfully

Q: What about the “IC50 against human TG2” value (human TG2; amount of IgG in the reaction that would inhibit 1 ng of TG2, 100 ng human TG2) of the same molecule?
A: 0.011 µg/mL

Q: What about the “hybridoma supernatant ability to inhibit TG2 activity” value (human TG2; initial screen of conditioned medium, 100 ng of TG2) of the same molecule?
A: able to inhibit TG2 activity
